Laboratory results from paper PMC2115704 (The Journal of Cell Biology, 1989).

Target: the molecule itself
Assay: SDS-PAGE in the absence of reductant

B1: platelet thrombospondin (natural protein)
chain: not shown
modifications: iodinated (residues not stated)
B1 was tested, and the “stoichiometry N” value was 3.
